{
  "source": "patent US20050153872A1",
  "about": "“Methods and compositions for the treatment of infection” (priority 2004, published 2005)",
  "key": {"[1]": {"test_system": "Aspergillus niger SWA 1011 strain", "assay": "In vitro cell growth inhibition assay", "conditions": "Ph-CA 5 μg/ml; Ph-SA 5 μg/ml; amphotericin B 200 ng/ml; Fluconazole 3 μg/ml"}, "[2]": {"test_system": "MRSA strain ATCC BAA-42", "assay": "Electron micrographs of bactericidal effects", "type": "cell-based, S. aureus", "conditions": "Ph-SA 50 μg/ml 0.5 hrs; wild type colicin Ia 50 μg/ml 2 hrs; AgrDI 10 μg/ml 2 hrs", "excerpt": "Electron Micrographs of Bactericidal Effects of Ph-SA1 Against ATCC BAA-42 MRSA Strain Cells (1% Phosphotungstic Acid. 25,000×)"}, "[3]": {"test_system": "Candida albicans ATCC 10231", "assay": "In vitro cell growth inhibition assay (OD595, filaments)", "conditions": "Ph-CA 5 μg/ml; Ph-SA 5 μg/ml; ampicillin 50 μg/ml; amphotericin B 200 ng/ml; fluconazole 3 μg/ml"}, "[4]": {"test_system": "ATCC 700802 VRE cells", "assay": "Electron micrographs of bactericidal effects of Ph-EF", "type": "cell-based, Enterococcus", "conditions": "Ph-EF 10 ug/ml 0.5 and 2 hr; Ph-SA 10 ug/ml 2 hr; vancomycin 20 ug/ml 2 hr", "description": "Electron Microraphs of Bactericidal Effects of Ph-EF Against ATCC 700802 VRE Cells (1% Phosphotungstic Acid, 15.000×).\nBactericidal effects of ph-EF were tested and monitored by electron microscopy. FIG. 16 depicts electron micrographs of (a) untreated cells; (b) and (c) cells treated with Ph-EF (10 ug/ml) for 0.5 hr; (d) untreated cells for 2 hr; (e) cells treated by Ph-SA (10 ug/ml) for 2 hr; (f) cells treated with vancomycin (20 ug/ml) for 2 hr; (g) and (h) cells treated with Ph-EF (10 ug/ml) for 2 hrs."}, "[5]": {"test_system": "S. aureus strain ATCC BAA-42 MRSA", "conditions": "all agents 5 μg/ml"}, "[6]": {"test_system": "Staphylococcus aureus MRSA 02-18", "assay": "In vivo protection of infected mice", "parameters": "species or system Kungming mice", "conditions": "mice, i.p. infection 1.7 × 10^5 cfu/ml", "method_in_brief": "(§1)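 Kunming mice (18–22 g, both sexes) were infected intraperitoneally with a lethal dose of staphylococci, enterococci or E. coli; agents were diluted in sterile water to 10, 5 and 2.5 mg/L. Deaths were counted every 24 h over 7–14 days.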"}, "[7]": {"test_system": "Staphylococcus aureus MRSA BAA-42", "assay": "In vivo protection of infected mice", "parameters": "species or system Kungming mice", "conditions": "mice, i.p. infection 5.5 × 10^5 cfu/ml", "method_in_brief": "as §1"}, "[8]": {"test_system": "Enterococcus faecalis ATCC 700802", "assay": "In vivo protection of infected mice", "parameters": "species or system Kungming mice", "conditions": "mice, i.p. infection 8.0 × 10^6 cfu/ml", "method_in_brief": "as §1"}, "[9]": {"test_system": "Escherichia coli 02-1-65", "assay": "MIC against challenge strain (Table 3)", "type": "cell-based"}, "[10]": {"test_system": "Staphylococcus aureus MRSA 02-18", "assay": "microbe, parasite or virus in culture", "type": "cell-based", "conditions": "Staphylococcus aureus MRSA 02-18"}, "[11]": {"test_system": "SMMC-7721 human hepatocellular carcinoma cells", "assay": "Toxicity assessment in mammalian cells", "type": "cell-based", "conditions": "about 200 micrograms per ml; 48 hours incubation", "description": "(§2) To assess potential toxicity to mammalian cells, HL-7702 human liver cells and SMMC-7721 human hepatocellular carcinoma cells (Institute of Biochemistry & Cell Biology, Shanghai, Chinese Academy of Science) were grown in 1640 medium and treated with various fusion peptides. The concentration of antivirus and antibacterial peptides used for treating the cells was about 200 micrograms per ml. Equal amounts of stock solution (20 mM PBS, pH 7.4) was added to the control cells."}, "[12]": {"test_system": "HL-7702 human liver cells", "assay": "Toxicity assessment in mammalian cells", "type": "cell-based", "conditions": "about 200 micrograms per ml; 48 hours incubation", "description": "as §2"}, "[13]": {"test_system": "Staphylococcus aureus ATCC 29213", "assay": "MIC against challenge strain (Table 3)", "type": "cell-based"}, "[14]": {"test_system": "S. epidermidis BQIOC 26069", "type": "cell-based", "conditions": "all agents at 2 ug/ml", "description": "All agents were at 2 ug/ml."}, "[15]": {"test_system": "Staphylococcus aureus MRSA BAA-42", "assay": "microbe, parasite or virus in culture", "type": "cell-based", "conditions": "Staphylococcus aureus MRSA BAA-42"}, "[16]": {"test_system": "Staphylococcus aureus ATCC 29213", "assay": "In vivo protection of infected mice", "parameters": "species or system Kungming mice", "conditions": "i.p. infection 3.6 × 10^5 cfu/ml", "method_in_brief": "as §1"}, "[17]": {"test_system": "Escherichia coli 02-1-65", "assay": "In vivo protection of infected mice", "parameters": "species or system Kungming mice", "conditions": "i.p. infection 3.3 × 10^5 cfu/ml", "method_in_brief": "as §1"}, "[18]": {"test_system": "Enterococcus faecalis ATCC 700802", "assay": "microbe, parasite or virus in culture", "type": "cell-based", "conditions": "Enterococcus faecalis, ATCC700802"}, "[19]": {"test_system": "Staphylococcus epidermidis MRSE strain (25)", "assay": "In vitro antibacterial activity (MIC), clinical isolates", "type": "cell-based", "conditions": "25 MRSE clinical isolates", "method_in_brief": "(§3)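 Clinical isolates collected in Sichuan and Beijing in 2002, identified with the API system, were exposed to test compound to determine MIC50, MIC90 and MIC range. S. aureus ATCC25923, 29213 and BAA-42 served as control strains.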"}, "[20]": {"test_system": "Staphylococcus epidermidis MSSE strain (21)", "assay": "In vitro antibacterial activity (MIC), clinical isolates", "type": "cell-based", "conditions": "21 MSSE clinical isolates", "method_in_brief": "as §3"}, "[21]": {"test_system": "Enterococcus (20)", "assay": "In vitro antibacterial activity (MIC), clinical isolates", "type": "cell-based", "conditions": "20 Enterococcus clinical isolates", "method_in_brief": "as §3"}, "[22]": {"test_system": "Staphylococcus aureus MSSA strain (88)", "assay": "In vitro antibacterial activity (MIC), clinical isolates", "type": "cell-based", "conditions": "88 MSSA clinical isolates", "method_in_brief": "as §3"}, "[23]": {"test_system": "Acenetobactor (20)", "assay": "In vitro antibacterial activity (MIC), clinical isolates", "type": "cell-based", "conditions": "20 Acenetobactor clinical isolates", "method_in_brief": "as §3"}, "[24]": {"test_system": "Staphylococcus aureus MRSA strain (80)", "assay": "In vitro antibacterial activity (MIC), clinical isolates", "type": "cell-based", "conditions": "80 MRSA clinical isolates", "method_in_brief": "as §3"}, "[25]": {"conditions": "1st Time, i.v. treatment after one hour"}, "[26]": {"conditions": "2nd Time (value in parentheses), i.v. treatment"}},
  "data": [
    {"molecule": "Ph-SA1: Colicin Ia linked to the AgrDI pheromone of S. aureus (protein, Colicin attached to Pheromone peptide encoding Staphylococcus aureus AgrDI) SDPVRITNPGAESLGYDSDGHEIMAVDIYVNPPRVDVFHGTPPAWSSFGNKTIWGGNEWVDDSPTRSDIEKRDKEITAYKNTLSAQQKENENKRTEAGKRLSAAIAAREKDENTLKTLRAGNADAADITRQEFRLLQAELREYGFRTEIAGYDALRLHTESRMLFADADSLRISPREARSLIEQAEKRQKDAQNADKKAADMLAEYERRKGILDTRLSELEKNGGAALAVLDAQQARLLGQQTRNDRAISEARNKLSSVTESLNTARNALTRAEQQLTQQKNTPDGKTIVSPEKFPGRSSTNHSIVVSGDPRFAGTIKITTSAVIDNRANLNYLLSHSGLDYKRNILNDRNPVVTEDVEGDKKIYNAEVAEWDKLRQRLLDARNKITSAESAVNSARNNLSARTNEQKHANDALNALLKEKENIRNQLSGINQKIAEEKRKQDELKATKDAINFTTEFLKSVSEKYGAKAEQLAREMAGQAKGKKIRNVEEALKTYEKYRADINKKINAKDRAAIAAALESVKLSDISSNLNRFSRGLGYAGKFTSLADWITEFGKAVRTENWRPLFVKTETIIAGNAATALVALVFSILTGSALGIIGYGLLMAVTGALIDESLVEKANKFWGIYSTCDFIM", "values": [
      {"measurement": "effect on growth of Aspergillus niger", "setting": "[1]", "result": "no effect on the growth"},
      {"measurement": "bactericidal effect / effect on cell growth (electron micrographs)", "setting": "[2]", "result": "killed BAA-42 MRSA cells"},
      {"measurement": "effect on growth of Candida albicans", "setting": "[3]", "result": "no effect on the growth"},
      {"measurement": "morphological alteration in VRE cells (electron micrographs)", "setting": "[4]", "result": "no morphological alteration"},
      {"measurement": "inhibition of growth", "setting": "[5]", "result": "best inhibitory effects"},
      {"measurement": "ED50", "setting": "[6]; [25]", "result": 3.84, "unit": "mg/kg"},
      {"measurement": "ED50", "setting": "[6]; [26]", "result": "(4.24) mg/kg"},
      {"measurement": "ED50", "setting": "[7]; [25]", "result": 4.32, "unit": "mg/kg"},
      {"measurement": "ED50", "setting": "[7]; [26]", "result": "(4.23) mg/kg"},
      {"measurement": "ED50", "setting": "[8]; [25]", "result": 4.23, "unit": "mg/kg"},
      {"measurement": "ED50", "setting": "[8]; [26]", "result": "(3.70) mg/kg"},
      {"measurement": "MIC", "setting": "[9]", "result": 1, "unit": "µg/mL"},
      {"measurement": "MIC", "setting": "[10]", "result": 0.5, "unit": "µg/mL"},
      {"measurement": "cell morphology and cell growth (toxicity)", "setting": "[11]", "result": "not toxic to the liver cells"},
      {"measurement": "cell morphology and cell growth (toxicity)", "setting": "[12]", "result": "not toxic to the liver cells"},
      {"measurement": "MIC", "setting": "[13]", "result": 0.25, "unit": "µg/mL"},
      {"measurement": "inhibition of cell growth", "setting": "[14]", "result": "only partially inhibited"},
      {"measurement": "MIC", "setting": "[15]", "result": 0.5, "unit": "µg/mL"},
      {"measurement": "ED50", "setting": "[16]; [25]", "result": 10.35, "unit": "mg/kg"},
      {"measurement": "ED50", "setting": "[16]; [26]", "result": "(8.87) mg/kg"},
      {"measurement": "ED50", "setting": "[17]; [25]", "result": 3.14, "unit": "mg/kg"},
      {"measurement": "ED50", "setting": "[17]; [26]", "result": "(3.12) mg/kg"},
      {"measurement": "MIC", "setting": "[18]", "result": 4, "unit": "µg/mL"},
      {"measurement": "MIC50", "setting": "[19]", "result": ">64", "unit": "µg/mL"},
      {"measurement": "MIC90", "setting": "[19]", "result": ">64", "unit": "µg/mL"},
      {"measurement": "MIC50", "setting": "[20]", "result": 0.25, "unit": "µg/mL"},
      {"measurement": "MIC90", "setting": "[20]", "result": 16, "unit": "µg/mL"},
      {"measurement": "MIC Scope", "setting": "[20]", "result": "0.125˜32 mg/l"},
      {"measurement": "MIC50", "setting": "[21]", "result": ">64", "unit": "µg/mL"},
      {"measurement": "MIC90", "setting": "[21]", "result": ">64", "unit": "µg/mL"},
      {"measurement": "MIC50", "setting": "[22]", "result": 0.5, "unit": "µg/mL"},
      {"measurement": "MIC90", "setting": "[22]", "result": 16, "unit": "µg/mL"},
      {"measurement": "MIC50", "setting": "[23]", "result": 32, "unit": "µg/mL"},
      {"measurement": "MIC90", "setting": "[23]", "result": ">64", "unit": "µg/mL"},
      {"measurement": "MIC50", "setting": "[24]", "result": "16> mg/l"},
      {"measurement": "MIC90", "setting": "[24]", "result": 16, "unit": "µg/mL"},
      {"measurement": "MIC Scope", "setting": "[24]", "result": "<0.0005˜64 mg/l"}
    ]}
  ]
}
